# Test results reported in the RNAGym collection of RNA variant scans (doi:10.1073/pnas.2313332121).
# This sample holds only a part of the variants without activity.
# B1: TPR 5TU (parent)
# chain: GGAUCUUCUCGAUCUAACAAAAAAGACAAAUCUGCCACAAAGCUUGAGAGCAUCUUCGGAUGCAGAGGCGGCAGCCUUCGGUGGCGCGAUAGCGCCAACGUUCUCAACUAUGACACGCAAAACGCGUGCUCCGUUGAAUGGAGUUUAUCAUG
# Variants of: B1
# Experiment: polymerase ribozyme fitness, log enrichment relative to wild type (log ratio); higher = more active; in vitro selection for triplet polymerase activity
# How it was run: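 The heterodimeric triplet polymerase ribozyme's subunits were each mutagenized into PCR-built libraries and transcribed. Every library was selected once, in triplicate, by annealing with a biotinylated primer, the partner subunit and triplets, incubating frozen at −7 °C, gel-excising extended constructs, capturing on streptavidin beads and running RT-PCR. Input and output libraries were Illumina-sequenced, with genotypes kept only at ≥10 input reads and ≥1 read per output. Fitness, from inverse-variance-weighted replicate averages, is the base-2 logarithm of genotype enrichment over wild-type enrichment.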
row,Variant,polymerase ribozyme fitness (log ratio)
1,GGAUCUUCUCGAUCUAACUAAAACGACAAAUCUGCCACAAAGCUUGAGAGCAUCUUCGGAUGCAGAGGCGGCAGCCUUCGGUGGCACGAUAGCGCCAACGUUCUCAACUAUGACACGCAAAACGCGUGCUCCGUUGAAUUGAGUUUAUCAUG [A19U A24C G86A G140U],≤ -4.2
2,GGAUCUUCUCGAUCUAACUAAAUAGACAAAUCUGCCACAAAGCUUGAGAGCAUCUUCGGAAGCAGAGGCGGCAGCCUUCGGUGGCGCGAUAGCGCCAAAGGUCUCAACUAUGACACGCAAAACGCGUGCUCCGUUCCAUGGAGUAUAUCAUG [A19U A23U U61A C99A U101G G136C A137C U145A],≤ -4.2
3,GGAUCUUCUCGAUCUAACUACAAAGACAAAUCUGCCACAAAGCUUGAGAGCAUCUUCGGAUGCAGAGGCGGCAGCCUUCGGUGGCGCGAUAGCGCUAACGUUCUCAACUAUGACACGCAAAACGCGUGAUCCGUUGAAUGGAGUUUAUCAUG [A19U A21C C96U C129A],-4.13
4,GGAUCUUCUCGAUCUAACUAUAUAGACAAAUCUGCCACAAAGCUUGAGAGCAUCUUCGGAUGCAGACGCGGCAGCCUUCGGUGGCGCAAUAGCGCCAACGUCCUCAACUAUGACACGCAAAACGCGUGCUCCGUUGAAUGGAGUUUAUCGUG [A19U A21U A23U G67C G88A U102C A150G],≤ -4.2
5,GGAUCUUCUCGAUCUAACUCAAAAGACAAAUCUGCCACAAAGCUUGAGAGCAUCUUCGGAUGCAGAGGCGGCAGCCUUCGGUGGCGCGAUAGCGCCAACGUUCUCAACGAUGACACGCAAAACGCGUGCUCCGUUGAAUGGAGUUUAUCAUG [A19U A20C U109G],-2.07
6,GGAUCUUCUCGAUCUAACUAAAAAGCCAAAUCUGCCACAUAGCUUGAGAGCAUCUUCGGAUGCAGAGGCGGCAGCCUUCGGUGGCGCGAUAGCGCAAACGUUCUCAACUAUGACACGCAACACGCGUGCUCCGUUGAAUGGAGUUUAUCAUG [A19U A26C A40U C96A A121C],-2.54
7,GGAUCUUCUCGAUCUAACUAUAAAGACAAAUCUGCCACGAAGAUAGAGAGCAUCUUCGGAUGCAGAGGCGGCAGCCUUCGGUGGCGCGAUGGCGCCAACGUUCUCAACUAUGACACGCAAAACGCGUGCUCCGUUGAAUGGAGUUUAUCAUG [A19U A21U A39G C43A U45A A91G],≤ -4.2
8,GGAUCUUCUCGAUCUAACUAAAAAGUCAAAUCUGCCACAAAGCUUGAGAGCAUCUUCGGAUGCAGAGGCGGCAGCCUUCGGUGGCGCGAUAGCGCCAACGUUCUCAACUAUGACACGCAAAACGCGUGCUCCGUUGAAUGGAGUUUAUCAUG [A19U A26U],-2.56
9,GGAUCUUCUCGAUCUAACUAAGAAGACAAAUCUGCCACAAAGCUUGAGAGCCUCUUCGGAUGCAGAGGCGGCAGCCUUCGGUGGCGCGAUAGCGCCAACGUUCUCAACUAUGAAACGCAAAACGCGUGCUCCGUUGAAUGGGGUUUAUCAUG [A19U A22G A52C C114A A142G],≤ -4.2
10,GGAUCUUCUCGAUCUAACUAAAGAGACAAAUCUGCCACAAAGCUUGAGAGCAUCUUCGGAUGCAGAGGCGGCAGCCUUCGGUGGCGCGAUAGCGCCAACGUUCUCAACUAUGACACGCAAAACGCGUGCUCCGUUGAAUGGAGUUUAUCAUG [A19U A23G],-3.44
11,GGAUCUUCUCGAUCUAACUACAAAGACAAAUCUGCCACAAAGCUUGAGAGCAUCUUCGGAUGCAGAGGCGGCAGCCUUCGGUGGCGCGAUAGCGCCAACGUUCUCAACUAUGACACGCACAACGCGUGCUCCGUUGAAUGGAGUUUAUCAUG [A19U A21C A120C],-1.83
12,GGAUCUUCUCGAUCUAACUUAAAAGACAAAUCUGCCACAAAGCUUGAGAGCAUCUUGAGAUGCAGAGGCGGCAGCCUUCGGUGGCGCUAUACCGCCAACGUUCUCAACUAUGACACGCAAAACGAGUGCUUCGUUGAAUGGAGUUUACAAUG [A19U A20U C57G G58A G88U G92C C125A C131U U148C C149A],≤ -4.2
13,GGAUCUUCUCGAUCUAACUUAAAAGACAAAUCUGCCACAAAGCUUGAGAGCAUCUUCGGAUGCAGAGGCGGCAGCCUUCGGUGGUGCGAUAGCGCCAACGUUCUCAACUAUGACACGUAAAACGCGUGCUCCGUUGAAUGGAGUUUAUCAUG [A19U A20U C85U C118U],-2.63
14,GGAUCUUCUCGAUCUAACUUAAAGGACAAAUCUGCCACAAACCUUGAGAGCAUCAUAGGAUGCAGAGGCGGCAGCCUCCGGUGGCUCGAUAGCGCCAACGUUCUCAACUAUGACACGCUAAACGCGUGCUCCGUUGAAUGGAGUUUAUCAUG [A19U A20U A24G G42C U55A C57A U78C G86U A119U],≤ -4.2
15,GGAUCUUCUCGAUCUAACUAAGAAGACAAAUCUGCCACAAAGCUUGAGAGCAUCUUCGGAUGCAGAUGCGGCAGCCUUCGGUGGCGCGAUAGAGCCAACGUUCUCAACUAUGACACGCAAAACGCAUGCUACGUUGAAUGGAGUUUAUCAUG [A19U A22G G67U C93A G126A C131A],≤ -4.2
16,GGAUCUUCUCGAUCUAACUAAGAAGAGAAUUCUGCCACAAAGCUUGAGAGCAUCUUCGGAUGCAGAGGCGGCAGCCUUCGGUGGCGCCAUAGCGUCAACGUUCUCAACUAUGACACGCAAAACGCGUGCUCCGUUGAAUGGAGUUUAUCAUG [A19U A22G C27G A30U G88C C95U],≤ -4.2
17,GGAUCUUCUCGAUCUAACUAUAAAGACAAUUCUGCCACACAGCUUGAGAGCAUCAUCGGAUGCAGAGGCGGCAGCCUUCGGUGGCGCGAUAGCGCUAACGUUCUCAACUAUGACACGCAAAACGCAUGCUCUGUUGAAUGGAUUUUAUCAUG [A19U A21U A30U A40C U55A C96U G126A C132U G143U],≤ -4.2
18,GGAUCUUCUCGAUCUAACUAAAUAGUCAAAUCUGCCACAAAGCUUGAGAGCAUUUUCGGGUGCAGAGGCGGCAGCCUUCGGUGGCGCGAUAGCGCCAACGUUCUCAACUAUGACACGCAUAACGCGUGCUCCGUUGAAUGGAGUUUAUCAGG [A19U A23U A26U C54U A60G A120U U151G],≤ -4.2
19,GGAUCUUCUCGAUCUAACUAAAUAGACAAAUCUGCCACAAAGCUUGAGAGCAUCUUCGGAUGCAGAGGCGGCAGCCCUCGGUGGCGUGAUAGCGCCAACGUUCUCUAGUAUGACACGCAAAAGGCGUGCUCCGUUGAAUGGAGUUUAUCAUG [A19U A23U U77C C87U A106U C108G C123G],-4.07
